Earlier results on one substance are cited in patent publication US20260183395A1, “COMBINED THERAPIES USING IMMUNOMODULATING DRUGS” (ONK THERAPEUTICS LIMITED, priority 2022, published 2026).

In one data set the target is T1, decoy receptor DcR1 (Homo sapiens, UniProt O14798).
T1 sequence (O14798 26-236): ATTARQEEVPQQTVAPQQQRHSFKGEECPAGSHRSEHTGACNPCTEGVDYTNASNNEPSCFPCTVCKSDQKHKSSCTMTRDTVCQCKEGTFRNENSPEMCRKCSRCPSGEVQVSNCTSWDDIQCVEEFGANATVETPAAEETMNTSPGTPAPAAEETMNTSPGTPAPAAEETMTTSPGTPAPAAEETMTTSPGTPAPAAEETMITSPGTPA
The settings on record: surface plasmon resonance; WO 2009/077857. (SPR reads the build-up and loss of mass on a sensor chip optically.)

For a further data set, the target named is DR4 (Homo sapiens, UniProt O00220). The settings on record: surface plasmon resonance; WO 2009/077857.

pKd: −log10 of the molar value. Where only a bound is given, the exact number is not on record here.

In the case of “Wildtype TRAIL: Wildtype TRAIL ligand, baseline for the affinity of TRAIL variants/mutants”, the pKd in the data set with decoy receptor DcR1 was below 7.70; with DR4, below 8.70.

For orientation: pKd means −log10 of the Kd, conventionally taken in molar units.
